According to article PMC2515342:

Tests used:
[1] = target: apo-hemoglobin (hemoglobin lacking heme) (bovine) (UniProt P01966); experiment: SPR
[2] = target: hemoglobin (with bound heme) (bovine) (UniProt P01966); experiment: SPR

IsdX1 (GST removed with thrombin) (domain or fragment)
Kd [1]: 9.43 mM
Kd [2]: 0.00733 mM
